Data reported in the supplement of paper PMC10065799, “High-throughput profiling of sequence recognition by tyrosine kinases and SH2 domains using bacterial peptide display” (eLife, 2023).

What follows are sequences tested against Fes (UniProt P07332) (assay: phosphorylation enrichment, bacterial display (enrichment ratio); higher = better substrate or ligand; peptides without Tyr show the background).
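Further: 11-residue human phosphosite peptides and single-mutation variants displayed on the E. coli surface, counted by deep sequencing, each peptide's frequency after selection divided by its frequency in the unselected input library; frequency after pTyr selection over input frequency; kinase dosed for 20-30% of maximal phosphorylation in three min.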

Fes, sequence (P07332 whole entry, looked up): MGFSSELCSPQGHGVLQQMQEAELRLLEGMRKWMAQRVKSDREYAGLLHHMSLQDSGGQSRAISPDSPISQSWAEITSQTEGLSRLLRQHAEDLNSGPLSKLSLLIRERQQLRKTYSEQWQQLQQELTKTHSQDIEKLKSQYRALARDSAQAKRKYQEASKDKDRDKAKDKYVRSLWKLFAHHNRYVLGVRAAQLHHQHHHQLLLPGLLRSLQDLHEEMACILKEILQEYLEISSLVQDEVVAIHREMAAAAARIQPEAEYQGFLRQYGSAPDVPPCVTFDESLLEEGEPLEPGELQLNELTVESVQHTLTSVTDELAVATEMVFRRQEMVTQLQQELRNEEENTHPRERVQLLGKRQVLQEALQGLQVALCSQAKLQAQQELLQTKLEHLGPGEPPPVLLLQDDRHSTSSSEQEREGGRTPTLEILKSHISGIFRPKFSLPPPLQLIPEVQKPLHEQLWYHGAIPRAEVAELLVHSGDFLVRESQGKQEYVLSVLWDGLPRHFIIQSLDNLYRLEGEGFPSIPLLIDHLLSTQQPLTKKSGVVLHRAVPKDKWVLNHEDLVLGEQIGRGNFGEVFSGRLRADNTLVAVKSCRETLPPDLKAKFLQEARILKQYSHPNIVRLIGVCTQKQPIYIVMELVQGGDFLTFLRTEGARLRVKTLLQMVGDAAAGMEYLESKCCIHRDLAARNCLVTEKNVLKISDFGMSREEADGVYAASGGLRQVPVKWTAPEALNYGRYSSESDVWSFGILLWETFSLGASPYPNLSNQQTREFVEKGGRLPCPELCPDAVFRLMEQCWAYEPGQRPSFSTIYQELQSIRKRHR

| Sequence | phosphorylation enrichment |
| --- | --- |
| FSDPDYLAAVD [GLB1_Y154_S149F] | 0.939 |
| TLRETYGEMAD [ALB_Y108] | 1.2 |
| RSRSSYTHSLN [MYCT1_Y116_G119S] | 0.755 |
| DQLVKHGVNPG [TMPO_Y127_Y127H] | 0.467 |
| LVPPRYARSEI [PKP2_Y194] | 1.34 |
| STGSRYQPLAS [NCAPD2_Y1325] | 0.609 |
| EREYKYDAHNY [OAT_Y50_G51D] | 1 |
| PHMQTYEVDLN [SDHB_Y61] | 1.29 |
| EILTQYEAMAS [GFAP_Y242_R239L] | 0.976 |
| LITSVYGCSRQ [TMPRSS6_Y290] | 1.25 |
| GRVYVYHLSEQ [ITGAE_Y551_R552H] | 1.13 |
| CGTPDYIDPEI [PRKCG_Y521_A523D] | 1.41 |
| SKGFAYVHFDS [PABPC5_Y149_YF] | 0.871 |
| QLCVSYPGGFT [PROS1_Y259_N258S_YF] | 1.47 |
| WRPFGYPCRRR [BCS1L_Y181_R183C] | 0.643 |
| SGDDGYAKDAQ [TENM4_Y1530_K1535Q] | 0.866 |
| ALWFIYSHTRS [ENG_Y614_YF] | 1.5 |
| SGADSYEMEED [EGFR_Y316_C311S] | 1.16 |
| NFFDTYIKTCL [IQGAP2_Y1445_YF] | 1.34 |
| PYYTSYPPSPD [GDAP2_Y491] | 1.03 |
| CTTIRYNFMCN [TP53_Y234_H233R_YF] | 0.983 |
| LAAAGYDVEKN [H1-3_Y72] | 1.03 |
| AKNKDYMSFIR [GNE_Y197_I200F] | 0.646 |
| SLIERYEPSET [PLCD1_Y258] | 1.1 |
| KSEFAYEIFDK [MYOM2_Y1024_L1022F] | 1.04 |
| ELSDGYWVVSN [TPP1_Y459_A454E] | 1.34 |
| DVCKNYAKAKD [ALB_Y343_E345K] | 0.627 |
| GDEAIYATVAG [NRTKtide_2018] | 2.64 |
| RFLRGYRQFAF [HLA-A_Y137_D140Y_YF] | 0.908 |

The sequences below were run against EPHB1 (UniProt P54762) in the same assay as above.
EPHB1, sequence (P54762 whole entry, looked up): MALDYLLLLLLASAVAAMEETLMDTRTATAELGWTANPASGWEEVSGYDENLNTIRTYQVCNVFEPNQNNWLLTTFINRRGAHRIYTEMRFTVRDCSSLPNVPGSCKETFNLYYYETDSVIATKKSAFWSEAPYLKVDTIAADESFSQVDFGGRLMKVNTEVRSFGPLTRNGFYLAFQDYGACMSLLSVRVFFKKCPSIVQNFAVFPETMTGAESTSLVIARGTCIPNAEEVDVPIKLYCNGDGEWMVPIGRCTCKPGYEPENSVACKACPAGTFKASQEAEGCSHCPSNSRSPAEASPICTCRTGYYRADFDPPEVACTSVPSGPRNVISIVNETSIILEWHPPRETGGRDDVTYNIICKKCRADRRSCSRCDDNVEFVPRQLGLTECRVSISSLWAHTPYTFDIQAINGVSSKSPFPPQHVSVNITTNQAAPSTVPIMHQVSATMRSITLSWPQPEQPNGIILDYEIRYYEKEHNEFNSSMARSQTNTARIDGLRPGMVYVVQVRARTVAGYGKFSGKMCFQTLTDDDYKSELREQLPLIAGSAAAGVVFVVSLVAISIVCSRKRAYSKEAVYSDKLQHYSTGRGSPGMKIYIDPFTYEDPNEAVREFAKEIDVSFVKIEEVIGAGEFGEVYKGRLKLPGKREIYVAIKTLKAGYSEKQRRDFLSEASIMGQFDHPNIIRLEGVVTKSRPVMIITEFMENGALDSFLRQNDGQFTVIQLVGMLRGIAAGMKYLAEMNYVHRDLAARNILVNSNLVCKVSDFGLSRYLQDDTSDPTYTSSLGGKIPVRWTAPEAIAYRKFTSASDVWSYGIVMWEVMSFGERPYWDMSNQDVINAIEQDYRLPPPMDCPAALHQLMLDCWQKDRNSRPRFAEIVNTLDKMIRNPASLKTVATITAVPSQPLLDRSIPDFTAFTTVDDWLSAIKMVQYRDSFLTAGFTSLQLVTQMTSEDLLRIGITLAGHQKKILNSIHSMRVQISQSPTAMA

| Sequence | phosphorylation enrichment |
| --- | --- |
| FSDPDYLAAVD [GLB1_Y154_S149F] | 0.58 |
| TLRETYGEMAD [ALB_Y108] | 0.54 |
| RSRSSYTHSLN [MYCT1_Y116_G119S] | 0.504 |
| DQLVKHGVNPG [TMPO_Y127_Y127H] | 0.347 |
| LVPPRYARSEI [PKP2_Y194] | 0.597 |
| STGSRYQPLAS [NCAPD2_Y1325] | 0.424 |
| EREYKYDAHNY [OAT_Y50_G51D] | 0.412 |
| PHMQTYEVDLN [SDHB_Y61] | 0.978 |
| EILTQYEAMAS [GFAP_Y242_R239L] | 0.547 |
| LITSVYGCSRQ [TMPRSS6_Y290] | 0.989 |
| GRVYVYHLSEQ [ITGAE_Y551_R552H] | 0.645 |
| CGTPDYIDPEI [PRKCG_Y521_A523D] | 1.1 |
| SKGFAYVHFDS [PABPC5_Y149_YF] | 0.477 |
| QLCVSYPGGFT [PROS1_Y259_N258S_YF] | 0.481 |
| WRPFGYPCRRR [BCS1L_Y181_R183C] | 0.422 |
| SGDDGYAKDAQ [TENM4_Y1530_K1535Q] | 0.446 |
| ALWFIYSHTRS [ENG_Y614_YF] | 0.597 |
| SGADSYEMEED [EGFR_Y316_C311S] | 0.574 |
| NFFDTYIKTCL [IQGAP2_Y1445_YF] | 0.736 |
| PYYTSYPPSPD [GDAP2_Y491] | 3.43 |
| CTTIRYNFMCN [TP53_Y234_H233R_YF] | 0.552 |
| LAAAGYDVEKN [H1-3_Y72] | 0.463 |
| AKNKDYMSFIR [GNE_Y197_I200F] | 0.812 |
| SLIERYEPSET [PLCD1_Y258] | 0.742 |
| KSEFAYEIFDK [MYOM2_Y1024_L1022F] | 0.527 |
| ELSDGYWVVSN [TPP1_Y459_A454E] | 0.559 |
| DVCKNYAKAKD [ALB_Y343_E345K] | 0.469 |
| GDEAIYATVAG [NRTKtide_2018] | 12.1 |
| RFLRGYRQFAF [HLA-A_Y137_D140Y_YF] | 0.67 |

The sequences below were run against Hck (UniProt P08631) in the same assay as above.
Hck, sequence (P08631 whole entry, looked up): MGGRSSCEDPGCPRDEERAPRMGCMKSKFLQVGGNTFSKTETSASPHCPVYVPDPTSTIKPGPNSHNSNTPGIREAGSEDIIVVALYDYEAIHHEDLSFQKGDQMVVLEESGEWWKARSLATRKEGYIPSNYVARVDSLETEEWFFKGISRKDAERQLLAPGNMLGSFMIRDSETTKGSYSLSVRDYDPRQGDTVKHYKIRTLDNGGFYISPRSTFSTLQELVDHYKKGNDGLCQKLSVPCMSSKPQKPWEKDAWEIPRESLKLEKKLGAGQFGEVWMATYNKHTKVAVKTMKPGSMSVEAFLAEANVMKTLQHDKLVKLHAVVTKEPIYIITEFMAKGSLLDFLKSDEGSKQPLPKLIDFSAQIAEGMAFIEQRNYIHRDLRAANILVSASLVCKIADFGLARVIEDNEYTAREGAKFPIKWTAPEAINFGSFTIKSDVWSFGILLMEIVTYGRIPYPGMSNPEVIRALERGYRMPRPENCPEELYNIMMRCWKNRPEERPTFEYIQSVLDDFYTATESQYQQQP

| Sequence | phosphorylation enrichment |
| --- | --- |
| FSDPDYLAAVD [GLB1_Y154_S149F] | 0.702 |
| TLRETYGEMAD [ALB_Y108] | 0.555 |
| RSRSSYTHSLN [MYCT1_Y116_G119S] | 0.495 |
| DQLVKHGVNPG [TMPO_Y127_Y127H] | 0.386 |
| LVPPRYARSEI [PKP2_Y194] | 0.783 |
| STGSRYQPLAS [NCAPD2_Y1325] | 0.414 |
| EREYKYDAHNY [OAT_Y50_G51D] | 0.498 |
| PHMQTYEVDLN [SDHB_Y61] | 0.804 |
| EILTQYEAMAS [GFAP_Y242_R239L] | 0.526 |
| LITSVYGCSRQ [TMPRSS6_Y290] | 1.83 |
| GRVYVYHLSEQ [ITGAE_Y551_R552H] | 0.602 |
| CGTPDYIDPEI [PRKCG_Y521_A523D] | 0.7 |
| SKGFAYVHFDS [PABPC5_Y149_YF] | 0.378 |
| QLCVSYPGGFT [PROS1_Y259_N258S_YF] | 0.682 |
| WRPFGYPCRRR [BCS1L_Y181_R183C] | 0.457 |
| SGDDGYAKDAQ [TENM4_Y1530_K1535Q] | 0.493 |
| ALWFIYSHTRS [ENG_Y614_YF] | 0.448 |
| SGADSYEMEED [EGFR_Y316_C311S] | 0.668 |
| NFFDTYIKTCL [IQGAP2_Y1445_YF] | 0.587 |
| PYYTSYPPSPD [GDAP2_Y491] | 2.39 |
| CTTIRYNFMCN [TP53_Y234_H233R_YF] | 0.435 |
| LAAAGYDVEKN [H1-3_Y72] | 0.692 |
| AKNKDYMSFIR [GNE_Y197_I200F] | 0.946 |
| SLIERYEPSET [PLCD1_Y258] | 0.54 |
| KSEFAYEIFDK [MYOM2_Y1024_L1022F] | 0.561 |
| ELSDGYWVVSN [TPP1_Y459_A454E] | 0.647 |
| DVCKNYAKAKD [ALB_Y343_E345K] | 0.439 |
| GDEAIYATVAG [NRTKtide_2018] | 9.26 |
| RFLRGYRQFAF [HLA-A_Y137_D140Y_YF] | 0.519 |

These sequences were tested on c-Abl (mouse) in the same assay as above.

| Sequence | phosphorylation enrichment |
| --- | --- |
| FSDPDYLAAVD [GLB1_Y154_S149F] | 0.577 |
| TLRETYGEMAD [ALB_Y108] | 0.885 |
| RSRSSYTHSLN [MYCT1_Y116_G119S] | 0.97 |
| DQLVKHGVNPG [TMPO_Y127_Y127H] | 0.421 |
| LVPPRYARSEI [PKP2_Y194] | 0.345 |
| STGSRYQPLAS [NCAPD2_Y1325] | 0.505 |
| EREYKYDAHNY [OAT_Y50_G51D] | 0.705 |
| PHMQTYEVDLN [SDHB_Y61] | 0.649 |
| EILTQYEAMAS [GFAP_Y242_R239L] | 0.713 |
| LITSVYGCSRQ [TMPRSS6_Y290] | 1.27 |
| GRVYVYHLSEQ [ITGAE_Y551_R552H] | 0.646 |
| CGTPDYIDPEI [PRKCG_Y521_A523D] | 0.813 |
| SKGFAYVHFDS [PABPC5_Y149_YF] | 0.681 |
| QLCVSYPGGFT [PROS1_Y259_N258S_YF] | 1.24 |
| WRPFGYPCRRR [BCS1L_Y181_R183C] | 0.544 |
| SGDDGYAKDAQ [TENM4_Y1530_K1535Q] | 0.575 |
| ALWFIYSHTRS [ENG_Y614_YF] | 0.697 |
| SGADSYEMEED [EGFR_Y316_C311S] | 0.749 |
| NFFDTYIKTCL [IQGAP2_Y1445_YF] | 0.843 |
| PYYTSYPPSPD [GDAP2_Y491] | 1.67 |
| CTTIRYNFMCN [TP53_Y234_H233R_YF] | 0.618 |
| LAAAGYDVEKN [H1-3_Y72] | 0.582 |
| AKNKDYMSFIR [GNE_Y197_I200F] | 0.661 |
| SLIERYEPSET [PLCD1_Y258] | 0.717 |
| KSEFAYEIFDK [MYOM2_Y1024_L1022F] | 0.746 |
| ELSDGYWVVSN [TPP1_Y459_A454E] | 0.778 |
| DVCKNYAKAKD [ALB_Y343_E345K] | 0.633 |
| GDEAIYATVAG [NRTKtide_2018] | 22.1 |
| RFLRGYRQFAF [HLA-A_Y137_D140Y_YF] | 0.661 |
